Laboratory results as given in patent publication US20160289339A1 (IMMUNWORK, published 2016).

Assays:
[1] = molecular target: T1, synthetic polypeptide maFa, N-terminal part of migis-αL (human); assay: ELISA on coated synthetic polypeptides, 10 µg/ml
T1 construct: also called the N-terminal polypeptide
T1 peptide: GSCSVADWQMPPPYVVLD
Description: (§1) Anti-migis-α mAbs 8G7 (Igγ2b, κ) and 29C11 (Igγ1, κ) were purified from hybridoma culturing medium by using Protein A Sepharose CL-4B medium (GE Healthcare). Purified mAbs were stored in PBS at the concentration of 1 mg/ml. A mouse anti-human IgA1.Fc mAb 3C10 (Igγ1, Abcam) and mouse total IgG (Sigma-Aldrich) were used as positive and negative controls, respectively. Various migis-α-containing recombinant proteins and several irrelevant proteins were tested in ELISA. Proteins were coated at 1 μg/ml in 0.05M carbonate/bicarbonate buffers in ELISA plates at 4° C. for overnight. Plates were washed with PBST (PBS with 0.05% Tween® 20) and blocked by PBS/BSA (PBS with 1% BSA) at room temperature for 1 h. After washing with PBST, mAbs at 1 μg/ml in PBS/BSA were added into plates and incubated at room temperature for 1 hr. Plates were washed with PBST and then HRP-conjugated goat anti-mouse IgG.Fc antibodies 1:10,000 diluted in PBS/BSA were adding into plates. After incubation at room temperature for 1 hr and washing with PBST, Tetramethylbenzidine substrates (Clinical Scientific Products) were added into plates for colorimetric measurement.
Synthetic migis-αL polypeptides were further used to study binding epitopes of anti-migis-α mAbs by ELISA. […]

[2] = molecular target: T2, mα1.FcS expressed on Ramos cells (human, UniProt P01876 103-398); assay: flow cytometry on Ramos/mα1.FcS cells, 1 µg/ml
T2 construct: also called Ramos/mα1.FcS
Description: (§2) For flow cytometric assays in the examples, 3C10 was used as a positive control of detecting mIgA expression and a mouse anti-human mIgE mAb 4B12 (Igγ1, κ) was served as a negative control. To perform the cell staining, 10⁶ cells were washed and incubated with mAbs in 100 μl of staining buffers on ice for 30 min. Cells were subsequently washed with staining buffers and incubated with FITC-labeled rabbit F(ab)′₂ anti-mouse IgG antibodies […] 1:400 diluted in 100 μl staining buffers on ice for 30 min. After washing, cells were resuspended in 400 μl of staining buffers and subjected to flow cytometric analyses in a FACSCanto II (BD Biosciences). […] At the low concentrations (1 μg/ml) staining signals of 29C11 towards these three mIgA-expressing B cells are undetectable.

[3] = molecular target: T3, mα1.FcL-456S-LZ recombinant protein (human); assay: ELISA, serial dilution of mAb on coated mα1.FcL-456S-LZ
T3 construct: also called mα1.FcL-LZ
T3 chain: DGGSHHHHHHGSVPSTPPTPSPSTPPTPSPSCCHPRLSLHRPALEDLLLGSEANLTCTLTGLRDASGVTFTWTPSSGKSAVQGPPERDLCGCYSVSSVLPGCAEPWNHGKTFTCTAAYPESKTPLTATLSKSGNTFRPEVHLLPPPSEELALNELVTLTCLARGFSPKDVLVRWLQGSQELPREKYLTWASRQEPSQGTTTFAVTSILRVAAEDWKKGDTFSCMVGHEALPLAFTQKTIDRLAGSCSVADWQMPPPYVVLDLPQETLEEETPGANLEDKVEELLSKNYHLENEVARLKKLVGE
Description: as §1
The binding curves were analyzed by the software Prism® (GraphPad) and the equation used for calculation was shown below.

[4] = molecular target: mα1.FcL-456C expressed on Ramos cells (human, UniProt P01876 103-398); assay: flow cytometry on Ramos/mα1.FcL-456S (so in the source) cells, 1 µg/ml
Description: as §2

[5] = molecular target: T4, membrane-bound IgA (mIgA) on DAKIKI cells (human, UniProt P01876 1-398); assay: flow cytometry on DAKIKI cells, 10 µg/ml against 1 µg/ml
T4 construct: whole, on cells; also called mIgA-expressing B cells
Description: as §2

[6] = molecular target: T5, synthetic polypeptide maF2-1 (human); assay: ELISA on coated synthetic polypeptides
T5 peptide: DWQMPPPYVVLD
Description: as §1
(§3) Synthetic migis-αL polypeptides were further used to study binding epitopes of anti-migis-α mAbs by ELISA. Polypeptides maFL (SEQ ID NO:9), maFa (SEQ ID NO:10), maFb (SEQ ID NO:11), and maFc (SEQ ID NO:12) are fragments that represent the full length, the N-terminal part, the middle part, and the C-terminal part of migis-αL sequences (FIG. 3A). Polypeptides maF1-2 (SEQ ID NO:13), maF1-3 (SEQ ID NO:14), maF2 (SEQ ID NO:15), and maF2-1 (SEQ ID NO:16) were designed to test shorter sequences for binding activity of anti-migis-α mAbs. Polypeptides at 10 μg/ml were coated in micro-well plates for reacting and ELISA procedures were followed as described above. […] In contrast, 29C11 is capable of binding to both the N-terminal and the middle part of migis-αL sequences, and also reacting to short fragments of the N-terminal polypeptides. (FIGS. 3B-C).

[7] = molecular target: T6, synthetic polypeptide maF1-2 (human); assay: ELISA on coated synthetic polypeptides
T6 peptide: GSCSVADWQMPP
Description: as §1, §3

[8] = molecular target: T7, synthetic polypeptide maF2 (human); assay: ELISA on coated synthetic polypeptides
T7 peptide: VADWQMPPPYVV
Description: as §1, §3

[9] = molecular target: T8, synthetic polypeptide maF1-3 (human); assay: ELISA on coated synthetic polypeptides
T8 peptide: CSVADWQMPPPY
Description: as §1, §3

[10] = molecular target: T9, mα1.Fc recombinant protein (human, UniProt P01876 103-333); assay: ELISA screening of hybridoma culture medium
T9 construct: leader/His tag/linker of the vector as for the other constructs
Description: Fifty microgram of the chimeric protein was used to immunize each Balb/c mouse subcutaneously for 4-5 times in a two-week interval. Three days before cell fusion, ten microgram of the chimeric protein was injected into each mouse intravenously. The splenocytes isolated from immunized mice were fused with mouse myeloma cells FO by using polyethylene glycol 1500 (Roche). After fusion procedures, cells were grown in HAT selection medium for 10-12 days and the cultured medium was transferred for ELISA screening (detailed in the next section). […] Hybridoma clones which produce antibodies reacting to mα1.FcL-LZ and not reacting to mα1.Fc were identified as candidates by using horseradish peroxidase (HRP)-conjugated goat anti-mouse IgG.Fc antibodies (Jackson ImmunoResearch) in ELISA. To further test the binding of hybridoma candidates towards mIgA-expressing B cells, 2×10⁵ DAKIKI cells were incubated with 100 μl of cultured medium on ice for 30 min. Cells were washed with staining buffers [PBS with 2% fetal bovine serum (FBS, Invitrogen) and 0.05% sodium azide] and incubated with FITC-labeled rabbit F(ab)′₂ anti-mouse IgG antibodies (AbD Serotech) 1:400 diluted in staining buffers on ice for 30 min. After washing, cells were resuspended in 200 μl of staining buffer and subjected to flow cytometric analyses. […]

T4 sequence (P01876 whole entry): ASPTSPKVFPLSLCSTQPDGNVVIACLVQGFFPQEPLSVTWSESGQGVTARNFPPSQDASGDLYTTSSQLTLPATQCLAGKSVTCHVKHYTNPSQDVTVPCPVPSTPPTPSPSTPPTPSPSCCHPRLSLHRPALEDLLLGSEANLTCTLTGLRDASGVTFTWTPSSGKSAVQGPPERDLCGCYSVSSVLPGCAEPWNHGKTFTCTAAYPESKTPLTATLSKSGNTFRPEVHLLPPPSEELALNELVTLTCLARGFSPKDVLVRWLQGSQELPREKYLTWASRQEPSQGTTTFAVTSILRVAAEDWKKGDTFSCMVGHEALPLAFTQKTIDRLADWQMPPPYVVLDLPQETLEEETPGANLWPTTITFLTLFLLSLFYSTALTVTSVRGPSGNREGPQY

B1: anti-migis-α mAb 8G7 (antibody, V domains shown)
VH: EVQLQESGPSLVKPSQTLSLTCSVTGDSITNGYWNWIRKFPGNKLEYMGYISYSGSTYYNPSLKSRIFITRDTSKNQYYLQLNSVTTEDTAIYYCARWLGGRAYWGQGTTLIVSS
VL: DIVMTQSQKFMSTSVGDRVSVTCKASQNVGTNVVWYQQKPGQSPKTLIYSASRRFSGVPDRFTGSGSGTDFTLTISNVQSEDLAEYFCQQYNSYPLTFGAGTKLELK
notes: also called 8G7 mAb
Question: Which results are given for B1?
Answer: binding result [1]: binds; fold of MFI over background against that of 29C11, (MFI8G7-MFIbackground)/(MFI29C11-MFIbackground) [2]: 10.4 fold; fold lower concentration at half the maximum binding than 29C11 [3]: ~6 fold; fold of MFI over background against that of 29C11, (MFI8G7-MFIbackground)/(MFI29C11-MFIbackground) [4]: 13.5 fold; fold of the increment of MFI (high minus low concentration, over background) against that of 29C11 [5]: 12.5 fold; binding result [6]: no binding (tested: 10 µg/ml peptide coated); binding result [7]: no binding (tested: 10 µg/ml peptide coated); binding result [8]: no binding (tested: 10 µg/ml peptide coated); binding result [9]: no binding (tested: 10 µg/ml peptide coated); binding result [10]: no binding
